The labels stand for the following.
B1: MTK-30 (antibody, human IgG1, V domains shown)
VH: QVQLQQPGTELVRPGASVKLSCKASGYTFTSYWMHWVKQRPGQGLEWIGNLNPNNGGTYYNEKFKSKATLTVDKSSSTAYMQLSSLTSEDSAVYYCARQILLYFDYWGQGTTLTVSS
VL: DVLMTQTPLSLPVSLGDQASISCRSSQSIVHSNGDTYLEWYLQKPGQSPKLLIYKVSNRFSGVPDRFSGSGSGTDFTLKISRVEAEDLGVYYCFQGSHVPWTFGGGTKLEIK
B2: MTK-33 (antibody, human IgG1, V domains shown)
VH: QVQLQQPGPELVRPGTSVKLSCKASGYTFTSYWMHWIKQRPGQGLEWIGVIDPSDNYINYNQKFKGKATLTVDTSSSTAYLQLSSLTSEDSAVYYCAREAGTRGYFDYWGQGTTLTVSS
VL: SIVMTQTPKFLLVSAGDRVIITCKASQSVSNTVAWYQQKPGQSPKLLIYYASNRYTGVPDRFTGSGYGTDFTFTISTVQAEDLAVYFCQQDYRSPFTFGSGTQLEMK
B3: MTK-10 (antibody, human IgG1, V domains shown)
VH: QVTLKESGPGILQPSQTLSLTCSFSGFSLTTSGMGVGWIRQPSGKGLEWLAHIWSDDDKRSNPALKSRLTISQDSSTNQVFLKIASVDTADSATYYCSHLTPVREFAYWGPGTLVTVSE
VL: DIQMTQTTSSLSASLGDRVTISCSASQGISNYLNWFQQKPDGTVKLLIYYTSRLHSGVPSRFSGSGSGTDFSLTISNLEPEDIATYYCQQYTKLPYTFGGGTKLEIK
B4: MTK-21 (antibody, human IgG1, V domains shown)
VH: QIQLVQSGPELKKPGETVKISCKASGYTFTNFGMTWVRQAPGMDLKWMGWINTYTGEPKYADDFKGRFALSLETSASTAYLQITNFKNEDTATYFCARGGGRLGLRPLDYWGQGTTLTVSS
VL: DIQMTQTTSSLSASLGDRVTISCRASQDINNYLNWYQQKPDGTVKLLIYYTSSLHSGVPSRFSGSGSGTDYSLTITNLEQEDIATYFCQQGNTLPWTFGGGTRLEIK
B5: MTK-29 (antibody, human IgG1, V domains shown)
VH: QIQLVQSGPELKKPGETVKISCKSSGFTFTTYGMSWVKQAPGKGLKWMGWINTYSGVPTYTDDFKGRFAFSLETSASTASLQINNLKNEDTATYFCARYTNYGYFDYWGQGTTLTVSS
VL: QIVLSQSPAILSASPGEKVTMTCRATSSVGYMHWYQQKPGSSPKPWIYATSNLASGVPARFSGSGSGTSYSLTISRVEAEHAATYYCQQWGSNPFTFGSGTKLEIK
B6: MTK-15 (antibody, human IgG1, V domains shown)
VH: QIQLVQSGPELKKPGETVKISCKASGYTFTNYGVHWVKQAPGKGLKWMGWINTYTGEPTYADDFKGRFAFSLETSASTAYLQINNLKNEDMATYFCARGNRYAYMDYWGQGTSVTVSS
VL: QIVLSQSPAILSASPGEKVTMTCRASSSVSYMHWYQQKSGSSPKPWIYATSNLASGVPARFSGSGSGTSYSLTISRVEAEDAATYYCQQWSSNPRTFGGGTKLEIK
B7: MTK-06 (antibody, human IgG1, V domains shown)
VH: QIQLVQSGPELKKPGETVKISCKASGYTFTNYGMNWVKQAPGKGLKWMGWINTNTGEPTYAEEFKGRFAFSLETSASTAYLQINNLKNEDTATYFCARYYNYWYFDVWGAGTTVTVSS
VL: QIVLSQSPAILSASPGEKVTMTCRASSSVSYMHWYQQKPGSSPKPWIYATSNLASGVPARFSGSGSGTSYSLTISRVEAEDAATYYCQQWSSKPPTFGGGTKLEIK
B8: MTK-16 (antibody, human IgG1, V domains shown)
VH: LIQLVQSGPELKKPGETVKISCKASGYTFTNHGMNWVKQDPGKGLKWMGWINTYTGEPTYADDFKGRFVFSMETSASAAFLQINNLKNEDTATYFCARKGVTAARYFDYWGQGTTLTVSS
VL: DIVMTQSPKFMSTSVGDRVSITCKASQNVRTAVAWYKKKPGQSPKALINLASNRHTGVPDRFTGSGSGTDFTLTISNVQSEDLADYFCLQHWNYPLTFGGGTKLEIK
B9: MTK-17 (antibody, human IgG1, V domains shown)
VH: QIQLVQSGPELKKPGETVKISCKASGYTFTNFGMNWVKQAPGKGLKWMGWINTYTGEPTYADDFKGRFAFSLETSASTAYLQINNLKNEDTATYFCSRGAVLRAGAMDCWGQGTSVTVSS
VL: DIQMTQSSSYLSVSLGGRVTITCKASDHINNWLAWYQQKPGNAPRLLISGATSLETGVPSRFSGSGSGKDYTLSITSLQTEDVATYYCQQYWSTPRTFGGGTKLEIK
B10: MTK-03 (antibody, human IgG1, V domains shown)
VH: DVQLQESGPGLVKPSQSLSLTCSVTGYSITSGYYWNWIRQFPGNTLEWMGYMSFDGDNKFNPSLKNRISITRDTSKNQFFLRLNSVTTEDTATYYCARGGYNYGSTEANWGQGTLVTVSA
VL: QIVLTQSPAIMSAFPGEKVTITCSASSSVNYMHWFQQKPGTSPKLWIYSTSNLASGVPARFSGSGSGTSYSLTISRMEAEDAATYYCQQRSSYPFTFGSGTKLEIK
B11: MTK-07 (antibody, human IgG1, V domains shown)
VH: DVQLQESGPGLVKPSQSLSLTCSVTGYSITSGYYWNWIRQFPGNTLEWMGYMSFDGDNKFNPSLKNRISITRDTSKNQFFLRLNSVTTEDTATYYCARGGYNYGSTEANWGQGTLVTVST
VL: QIVLTQSPAIMSAFPGEKVTITCSASSSVTYMHWFQQKPGTSPKLWIFSTSNLASGVPARFSGSGSGTSYSLTISRMEAEDAATYYCQQRSSYPFTFGSGTKLEIK
B12: MTK-18 (antibody, human IgG1, V domains shown)
VH: QIQLVQSGPELKKPGETVKISCKASGYTFTHYGMTWVKQAPGKGLKWMGWINTYTGEPTYADDFKGRFAFSLETSASTAYLQINNLKNEDTATYFCARGGGQLGLRPLDYWGQGTTLTVSS
VL: DIQMTQTTSSLSASLGDRVTFSCRASQAISNYLNWYQQKPDGTVKLLIYYTSRLHSGVPSRFSGSGSGTDYSLTISNLEQEDIATYFCQQGNTLPWTFGGGTKLEIK

The first assay addresses T1, human Axl ECD construct (Full Axl) with linker+His+Avi tag (human, UniProt P30530 26-451).
T1 construct: tested as Expi293 supernatant; also called ECD domain of human Axl
T1 sequence: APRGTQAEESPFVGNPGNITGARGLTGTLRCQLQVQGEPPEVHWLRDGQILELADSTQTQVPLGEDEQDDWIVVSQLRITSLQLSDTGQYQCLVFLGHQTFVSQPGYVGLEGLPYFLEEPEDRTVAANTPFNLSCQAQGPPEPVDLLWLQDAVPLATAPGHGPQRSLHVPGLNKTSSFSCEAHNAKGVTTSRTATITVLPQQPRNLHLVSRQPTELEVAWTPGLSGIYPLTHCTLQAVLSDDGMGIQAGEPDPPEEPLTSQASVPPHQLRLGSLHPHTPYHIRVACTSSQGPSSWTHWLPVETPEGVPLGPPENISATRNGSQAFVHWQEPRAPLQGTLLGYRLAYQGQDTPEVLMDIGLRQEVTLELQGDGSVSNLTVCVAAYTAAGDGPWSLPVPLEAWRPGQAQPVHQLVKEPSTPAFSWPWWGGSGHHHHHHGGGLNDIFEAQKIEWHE
Nature of the assay: SPR, Carterra LSA, antibody immobilised, construct supernatant injected. Here is the method:
Binding of anti-MerTK antibodies of the present disclosure to these domain-swapped chimera or deletion mutants (prepared as described above) was tested by Surface Plasmon Resonance (SPR) using Carterra LSA. Purified anti-MerTK antibodies were immobilized in duplicate on a HC30M chip (Carterra) by amine coupling, following the manufacturer's instructions (described previously). Supernatants containing the constructs were diluted 1:1 with running buffer containing 0.5 mg/mL BSA (HBS-TE, Carterra) and injected over the immobilized antibodies. The surface was regenerated with 10 mM Glycine pH2.0 after each construct injection. Sensorgrams were analyzed using Carterra Epitope software to identify patterns of construct binding. Loss of binding to MerTK constructs with domains deleted or swapped in from Axl and/or gain of binding to Axl constructs with MerTK domains swapped in were evaluated. Data from these studies was used to construct a domain binding map for anti-MerTK antibodies and their binding to various domains of human MerTK.
For orientation: SPR reads the build-up and loss of mass on a sensor chip optically.
For B1, the binding result was “no binding”.
Consider B2, for which the binding result was “no binding”.
For the molecule B3, the binding result was “no binding”.
In the case of B4, the binding result was “no binding”.
On to B5, for which the binding result is reported as “no binding”.
On to B6, for which the binding result was “no binding”.
As to B7, the binding result was “no binding”.
Consider B8, for which the binding result is “no binding”.

A further assay has as its target T2, Recombinant human MerTK human Fc Chimera protein (R&D systems, Cat #391-MR-100) (human, UniProt Q12866 26-499, limits assumed).
T2 construct: Bought; also called recombinant human MerTK protein; MerTK-Fc
T2 sequence: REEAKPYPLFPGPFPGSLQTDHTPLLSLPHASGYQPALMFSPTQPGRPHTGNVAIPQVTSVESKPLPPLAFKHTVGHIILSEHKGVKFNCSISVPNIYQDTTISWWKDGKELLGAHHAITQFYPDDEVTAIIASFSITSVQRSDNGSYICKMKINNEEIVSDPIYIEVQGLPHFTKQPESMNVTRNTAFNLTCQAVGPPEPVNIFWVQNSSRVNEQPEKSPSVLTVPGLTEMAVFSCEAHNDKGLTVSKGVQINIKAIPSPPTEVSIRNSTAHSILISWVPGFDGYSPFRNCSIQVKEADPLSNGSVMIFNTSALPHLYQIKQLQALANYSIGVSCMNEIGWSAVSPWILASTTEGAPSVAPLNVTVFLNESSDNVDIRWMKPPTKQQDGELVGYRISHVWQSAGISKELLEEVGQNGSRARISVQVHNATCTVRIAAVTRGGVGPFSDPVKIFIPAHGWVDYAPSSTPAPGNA
Nature of the assay: competition ELISA: His-tagged ProS (20 ug/ml) binding to captured human MerTK-Fc, anti-His-HRP detection; blocked ligand ProS. The procedure:
Rabbit anti-human IgG polyclonal antibody (Jackson ImmunoResearch, Cat #309-005-008) was captured to a high-protein binding plate at 2 μg/ml 4° C. overnight. After washing with 0.05% Tween20 in PBS three times, 5% BSA in PBS was added for 1 hour. Recombinant human MerTK human Fc Chimera protein (R&D systems, Cat #391-MR-100) was added at 2 μg/ml for 1 hour and the plates were then washed. Anti-MerTK antibodies were titrated to final concentration range of between 66.6 nM to 4 pM and then 40 μl of serially diluted antibody and 40 μl of His tag-conjugated recombinant Gas6 protein (R&D systems, Cat #885-GSB-050) at 3 μg/ml or His tag-conjugated recombinant ProS protein (R&D systems, Cat #9489-PS-100) at 20 μg/ml. After a further incubation for 1 hour, plates were washed and incubated for 1 hour with HRP-conjugated anti-6×His tag antibody (Abcam, Cat #ab1187). Plates were then washed and an HRP substrate (TMB) was used to develop the plates. After sufficient color change was observed, the reaction was stopped by adding 50 μl 2N H₂SO₄ and the OD was measured using a spectrophotometer (BioTek).
For orientation: ELISA stands for enzyme-linked immunosorbent assay.
For B9, the “IC50 (read off the curve)” value was in the range of 5 to 8 nM.
For B10, the “IC50 (read off the curve)” value is around 4 nM.
On to B11, for which the “IC50 (read off the curve)” value is around 3 nM.
As for B12, the “IC50 (read off the curve)” value is around 5 nM.
